According to PMC6956826:

Molecular target: SNID2 peptide of the CD3 zeta chain
Assay: ITC

Row | Substance | Kd [µM] | dH [kcal/mol] | stoichiometry N
1 | HIV-2 consensus Nef | 12 | -12.3 | 1.08
2 | SIVmac239 Nef core domain harboring the C-terminal region (domain or fragment) | – | -14.2 | 1.05
